The values below come from patent publication US20040202655A1.

pIC50: −log10 of the molar value. Several values for one entry are separate records, joined by “and”; a condition that tells them apart may be missing. Identical values can stand only once.

Broadly, the pIC50 is the negative decadic logarithm of the IC50, by convention in mol/L. Read a low pIC50 as a high IC50.

Assay [1] deals with human IGF-I receptor on cells (NIH-3T3 fibroblasts expressing the human IGF-IR; DU145 cells) (human) (UniProt P08069). Briefly: cell-based or functional assay.
The target is the same in assay [2]. Description: competition with 125I-IGF-I, NIH-3T3 cells expressing human IGF-1R, 37 C.
For assay [3] the target is unchanged. Briefly: competition with 125I-IGF-II, NIH-3T3 cells expressing human IGF-1R, 37 C.
Assay [4] has the same target. Briefly: competition with 125I-IGF-I, NIH-3T3 cells expressing human IGF-1R, 4 C.
For assay [5] the target is unchanged. Description: competition with 125I-IGF-II, NIH-3T3 cells expressing human IGF-1R, 4 C.

With “MOPC-21 (#M-7894, Sigma), IgG1 isotype control (antibody)”, the IC50 (nM), IGF-1 dependent proliferation of NIH-3T3/hIGF-1R cells (BrdU ELISA) in assay [1] was greater than 70 nM. In addition, the pIC50 in assay [2] and in assay [3] was less than 7.30 each time.

“UPC-10 (#F-0528), IgG2a isotype control (antibody)” showed an IC50 (nM), IGF-1 dependent proliferation of NIH-3T3/hIGF-1R cells (BrdU ELISA) in assay [1] greater than 70 nM. For the same substance, in assay [3], the pIC50 was less than 7.30.

As for “mouse anti-IGF-1R monoclonal antibody 24-57 (#MS-643-PABX, NeoMarkers)”, the pIC50 in assay [4] is 8.52 and 8.82 and 8.40; in assay [5] it was 9.00 and 9.22; in assay [2], 8.77 and 8.72; in assay [3], 8.40 and 8.19.

Turning to “mouse anti-IGF-1R monoclonal antibody alpha IR3 (#GR11SP2, Oncogene Research Products)”, the pIC50 was 8.46 in assay [4]; 8.80 and 8.72 in assay [2]; less than 7.30 in assay [3]. Besides, the IC50 (nM), IGF-1 dependent proliferation of NIH-3T3/hIGF-1R cells (BrdU ELISA) in assay [1] was greater than 70 nM.
